Reference: a protein production outcome set (Wang et al. 2014)

Test: label from the status in PepcDB records

Row | Sequence | protein production
1 | MTDFPTSLTSPGNRCEGCQQSQPLGFDFSFAYQPIVDLRDHSVFAHEALVRGVNGEGAGTVLGQVNDSNRYRFDQRCRTQAITLAAQLGMQSHLSINFMPNAVYRPELCIRSTLEAARAQRFPLDRLIFETLESQHVDNYRHLTNILREYREFGFKTAIDDFGSGYSGLNLLADFQPDLIKLDMALVRDVDQDRVRQAIIRAIVTMCAELGVTVIAEGIESAGERDFLSDCGIYLMQGYWFAKPAFKALAEVPAAAWNS | failed
2 | SHPCFVQGRPELLSQIKRKQSARTVEDKQVNEQTQQNLEVVMAEMRAMREKAKNMEDKMNKLTKENRDMWTQMGSMRQQHARQQQYFKKLLHFLVSVMQPGLSKRVAKRGVLEIDFCAANGTAGPNSKRARMNSEEGPYKDVCDLLESLQRETQEPFSRRFTNNEGPLISEVTDEFGNSPVGRGSAQDLFGDTFGAQSSRYSDGGATSSREQSPHPIISQPQSNSAGAHGANEQKPDDMYMGSGPLTHENIHRGISALKRDYQGASPASGGPSTSSSAPSGAGAGARMAQKRAAPYKNATRQMAQPQQDYSGGFVNNYSGFMPSDPSMIPYQPSHQYLQPHQKLMAIEDQHHPTTSTSSTNADPHQNLYSPTLGLSPSFDRQLSQELQEYFTGTDTSLESFRDLVSNHNWDDFGNNVPLDDDEEGSEDPLRQLALENAPETSNYDGAEDLLFDNEQQYPENGFDVPDPNYLPLADEEIFPHSPALRTPSPS | failed
3 | MDRYIDGFMKWMPESLFICFILTFLVVTMSVLMTDSPFIGTEKTGGIIYGWVNGFWGLLSFAMQMTILLATGNAVASSPPAHKMFKSLAKLPQTRTQIFIFSIVVGSIFGFLHWGLGMMVAIVFGKELLVQARQKGIKVHTPLFVATLFFTFLPATSGLSGAAVLYSATPDYLRNSVADAYKQVVPESVPLTESVLNLPFISLLVVCMLVPLCFALLAHPKDETKIMELDDEIYHHSLDTASHVVIARNTPAEKMNASRLVMYLVGGAIVSYSLYHFSVVGLSGLDLNCFNFLFLGLGLLLCGQQGPEYYGSLFKDGVMSSWGLVLQFPFYAGIFGIIQSTGLGLEISHFFVAISNGTTWPVFAYLYSALLNIAVPSGGSKFVIEAPYIVPATIEVGNDLGKILQAYQLGDATTNLIVPFWALSYLSNFKLKFNQIVAYTIPCVLVVTGIAIIYLFVF | failed
4 | MTGNSFHVSGYGPDKAGWTRLFARDSMARRLDWPILLAAVALSLMGSLLVYSATRNRTELNQGDQYYFLTRHLLNTGIGLALMVATVWLGHRALRTAVPLLYGFSVFLILLVLTPLGSTINGAHSWIKLPGGFSLQPSEFVKITIILGMAMLLAARVDAGDRPHPDHRTVLQALGLATVPMLIVMLMPDLGSVMVMVIIVLGILLASGASNRWIFGLLGAGTAGALAVWQLGILDDYQIARFAAFANPALDPAGVGYNTNQARIAIGSGGLTGSGLFEGSQTTGRFVPEQQTDFVFTVAGEELGFLGAGLIIALLGVVLWRGCRIARSTPDLYGTVVAAGIVAWFAFQTFENVGMTLGIMPVTGLPLPFVSYGGSSMFAVWIAVGLLQSITVQRPMSA | failed
5 | MVGGVEELSIEQLASSISTYKEQLEQNFVCGLEFRIGEEKLNVRQLLSEDPRNSEYADMEKELKEVIALTEEVLATAKQNEISLSDAGVSAEATPGSPDLEGAWEKTGLRNDPIHEGKFPVGTKVQAVFSDDGEWYDATIEAHTANGYFVAYDEWGNKEEVDPDNVRPIEQNAIVEAERLAQATKNALKRKIEKAASSDYQTKTLPAKLKIDPNDPEDVKIAKRKKIHAFKSKARFEQLEVVQNKKQNDWQQFQTTKAKTKKVGFFTGRKKESIFKSPEDPFGKVGVTGSGKGLTDFQKREKHLHLKSGNAEGTDE | failed
6 | MLDNAIPQGFEDAVELRRKNRETVVKYMNTKGQDRLRRHELFVEDGCGGLWTTDTGSPIVIRGKDKLAEHAVWSLKCFPDWEWYNIKVFETDDPNHFWVECDGHGKILFPGYPEGYYENHFLHSFELDDGKIKRNREFMNVFQQLRALSIPVPQIKREGIPT | not failed
7 | MSLMQLQLTQEWDKTFPLSAKVEHRKVTFANRYGITLAADLYLPKNRGGDRLPAIVIGGPFGAVKEQSSGLYAQTMAERGFVTLAFDPSYTGESGGQPRNVASPDINTEDFSAAVDFISLLPEVNRERIGVIGICGWGGMALNAVAVDKRIKAVVTSTMYDMTRVMSKGYNDSVTLEQRTRTLEQLGQQRWKDAESGTPAYQPPYNELKGGEAQFLVDYHDYYMTPRGYHPRAVNSGNAWTMTTPLSFMNMPILTYIKEISPRPILLIHGERAHSRYFSEIAYAAAAEPKELLIVPGASHVDLYDRLDRIPFDRIAGFFDEHLEGHHHHHH | not failed
8 | MIQAVFERAEDGELRSAEITGHAESGEYGLDVVCASVSTLAINFINSIEKFAGYEPILELNEDEGGYLMVEIPKDLPSHQREMTQLFFESFFLGMANLSENYSEFVQTRVITEN | not failed
9 | EDFRPVVFVHGLAGSAGQFESQGMRFAANGYPAEYVKTFEYDTISWALVVETDMLFSGLGSEFGLNISQIIDPETLDKILSKSRERLIDETFSRLDRVIDEALAESGADKVDLVGHSMGTFFLVRYVNSSPERAAKVAHLILLDGVWGVDAPEGIPTLAVFGNPKALPALGLPEEKVVYNATNVYFNNMTHVQLCTSPETFAVMFEFINGYKPATT | not failed
10 | ELAWLVDCLAPIFDGLRQPVTVVDPSGRFVYYNRASGLLDGLDPQRALGMHLLQSAPWLAAEQSTLLRCLAEGRPSIDTLQAYVGAGGELLQYRHRAIPLRGRDGCLLGAMEL | failed
11 | MIKRILTVLLLFPTLVCAQINTERVMTIARNALYFEDYVLSIQYFNQVINAKPYLYEPYFFRALAKVNLEDYQGAEADCDEAIKRNPFVVGAYQVRGLARIRQSKFDGAIEDYQKALHYDPENITLWHNLTLSHIQKKDYDAAKEDLESLLKVSPRYTRAYLMRGEVSLQQKDTVAALKDFNTALELDKYDPDAWSARAIVRLQQSNYAEAESDLDRAIHLSAKNAGNYINRALARFHQNNLRGAMSDYDLALDIDPNNFIGHYNRGLLRARVGDDNRAIEDFDFVIQMEPDNMMAIFNRALLRAQTGDYRGAIKDYTTVINQYPNFLAGYYHRAEARKKIGDKKGAEQDDFKLLKAQLDKQNGGTNKDVAQNQNKDKENQSGENGDESEEGKTRKKSDKNMNNYRKIVIADDSEADQRYTSDYRGRVQDKNVNIKLEPMFALTYYEKSSEVKRSVNFHKFIEDLNLSNVLPKRIRITNMEAPLTEEQVKFHFALIDAHTSAIVDDDKSAPKRFARAIDFYLVQDFSSAVADLTQAILLDGDFFPAYFMRALIRCKQLEYQKAEQAAEADMPSGAAVKEVSAVDYEVVRKDLDKVITLAPDFVYAYYNRANVAAMLKDYRAAIVDYDKAIQLSPDFADAYFNRGLTHIFLGNNKAGISDLSKAGELGVVSAYNVIKRFTDQTE | failed
12 | EVNAAMNDGVICDMFEGHTPFKPRYVLPDYARYLQQGSEYLELSPAQDLDEALNALTILYHHVPSVTNIPVYLGQLDDILMPFVEGMDADALYRKLKLFWIMLDRTLPDAFMHVNLGPTDNIVCRTLLRIDAELKQVAPNLTFMYDPAVTPDELLQIATTNICQCSKPHIANYPQHASAFDACGFGIVSCYNALPLAGGANTLVRLNLKEVALKATSINDFFERVLPYYCSLTFELIEARSAFLHQESHFFDSFLVKEQLIDESRFAPMFGIYGMAEAVNILQAQMTSETDKSSQSNKPTGYGHSMDANQLGYRISAALDTIVKSTPVTYGYHGRALLHSQGGISLDKGVTPGVRIPYGTEPNPIAHIQALAQHHQYYTAGISDILTIDETVKSNPQAMFQLCKAALELGFREFTANVASNDLMRVTGYMVKRSDIEAFKQ | failed
13 | MWRVRCKAKGGTHLLQGLSSRTRLRELQGQIAAITGIAPGSQRILVGYPPECLDLSDRDITLGDLPIQSGDMLIVEEDQTRPKASP | not failed
14 | MIRFEIHGDNLTITDAIRNYIEEKVGKLERYFNNVPNAVAHVRVKTYSNSTTKIEVTIPLKDVTLRAEERHDDLYAGIDLITNKLERQVRKYKTRVNRKHRDRGDQDIFVAEVQESTTNNHADDIESENDIEIIRSKQFSLKPMDSEEAVLQMNLLGHDFFIFTDRETDGTSIVYRRKDGKYGLIETTELEHHHHHH | not failed
15 | MAGNFDSEERSSWYWGRLSRQEAVALLQGQRHGVFLVRDSSTSPGDYVLSVSENSRVSHYIINSSGPRPPVPPSPAQPPPGVSPSRLRIGDQEFDSLPALLEFYKIHYLDTTTLIEPVSRSRQGSGVILRQEEAEYVRALFDFNGNDEEDLPFKKGDILRIRDKPEEQWWNAEDSEGKRGMIPVPYVEKYRPASASVSALIGGNQEGSHPQPLGGPEPGPYAQPSVNTPLPNLQNGPIYARVIQKRVPNAYDKTALALEVGELVKVTKINVSGQWEGECNGKRGHFPFTHVRLLDQQNPDEDFS | failed
